Laboratory results as given in the supplement of paper PMC9732359.
± gives the uncertainty stated by the source.

Assay: protein stability index of a GFP-peptide fusion (yeast GPS) (PSI 1-4); higher = more stable; sorted into four equal gates, so the index is relative within each strain
How it was run: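 Yeast carrying a pooled library were grown to mid-log phase in leucine-free medium. Each library plasmid expresses Cherry and has a tiled 17-residue yeast protein peptide fused downstream of GFP. Cells were sorted into four equal gates by GFP/Cherry ratio, and plasmids from each gate were PCR-amplified, Illumina-sequenced and assigned to strains by barcode. Summing, across gates, the read frequency times the gate number gave each peptide's protein stability index.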

Sequence | protein stability index (doa10∆) | protein stability index (pdr5∆) | protein stability index (san1∆) | protein stability index (ubr1∆)
FNSVKSFDEWFNTPFAN [SNF2] | 2.9 ± 0.091 | 3.14 ± 0.082 | 3.43 ± 0.085 | 3.26 ± 0.11
LPLATQQQVLNKLRQQA [SNF5] | 2.56 ± 0.27 | – | – | –
TARINNRRLFKKCIDFF [RRI2] | 2 ± 0.082 | 2.18 ± 0.059 | 1.91 ± 0.11 | 2.18 ± 0.054
AQYGIKALPIRRDDEVL [RPL26A] | 3.63 ± 0.18 | 3.32 ± 0.17 | 3.43 ± 0.061 | 3.28 ± 0.14
GNNVQENELVITSIPKP [RMP1] | 3.42 ± 0.14 | 3.4 ± 0.11 | 3.37 ± 0.065 | 3.15 ± 0.064
NENDLKTYNCLHEKYLT [SMC1] | 2.2 ± 0.072 | 2.68 ± 0.053 | 2.11 ± 0.083 | 3.02 ± 0.056
KIYINLALGSHNKLIQF [SSN2] | 2.57 ± 0.17 | 1.83 ± 0.078 | 2.13 ± 0.11 | 2.22 ± 0.071
EFKIEQNNEQNPIDPFN [YDL116W/NUP84] | 2.96 ± 0.087 | 3.11 ± 0.087 | 3.05 ± 0.067 | 3.23 ± 0.061
VVLRLYLKDNITLLTRQ [GRR1] | 1.88 ± 0.057 | 1.75 ± 0.084 | 1.34 ± 0.11 | 1.98 ± 0.067
TSIARIGDYILKSPVLS [QCR7] | 1.5 ± 0.045 | 1.72 ± 0.045 | 1.49 ± 0.075 | 1.98 ± 0.033
LDDWISIGYETELKKIT [IRR1] | 2.09 ± 0.07 | 2.75 ± 0.078 | 2.33 ± 0.14 | 2.58 ± 0.053
QPSKVSSNVQQPQQQLG [RTT102] | 2.82 ± 0.081 | 2.88 ± 0.094 | 2.61 ± 0.082 | 3.03 ± 0.1
IIEQLSIAAERYDYSDE [YCG1] | 2.51 ± 0.052 | 2.78 ± 0.063 | 2.22 ± 0.06 | 2.59 ± 0.032
DPNEVKYLYLRAVGGEV [RPL12A] | 1.77 ± 0.073 | 1.89 ± 0.12 | 1.98 ± 0.18 | 1.53 ± 0.039
TQPKAEATQDDDFDMLF [NUT1] | 2.73 ± 0.069 | 3.15 ± 0.051 | 2.99 ± 0.053 | 3.14 ± 0.043
AKKRKTLILIQNPENLL [SIR3] | 3.04 ± 0.094 | 2.54 ± 0.099 | 3.11 ± 0.092 | 2.78 ± 0.096
ERTKLQEHTIFTQLKKN [SNU114] | 1.46 ± 0.057 | 2 ± 0.056 | 1.97 ± 0.084 | 1.58 ± 0.039
DIWRVAGKFELLDRILP [SNF2] | 2.37 ± 0.086 | 2.65 ± 0.08 | 2.02 ± 0.14 | 2.54 ± 0.1
SEVQRTMLELLNQLDGF [RPT6] | 2.55 ± 0.1 | 2.5 ± 0.083 | 1.86 ± 0.15 | 2.51 ± 0.07
SAAGMTAAIDSVVSQIE [FAS1] | 3.49 ± 0.23 | 3.15 ± 0.11 | 3.04 ± 0.24 | 2.81 ± 0.11
FQSVQLNINNPNFLIMQ [SMC2] | 2.6 ± 0.06 | 2.62 ± 0.071 | 1.75 ± 0.062 | 2.1 ± 0.061
DKLLDFIRYDVKTPKKT [CSN12] | 2.73 ± 0.046 | 2.64 ± 0.045 | 2.2 ± 0.052 | 2.99 ± 0.053
CHSKLRGQQVENPTDNF [GRR1] | 2.86 ± 0.22 | – | – | –
MAISKNLPILKNHFRKH [RPL13A] | 2.89 ± 0.1 | 2.89 ± 0.079 | 2.87 ± 0.081 | 2.54 ± 0.19
RYLDNLKQEIDRGLSIK [SNU114] | 3.02 ± 0.15 | 2.9 ± 0.17 | 3.4 ± 0.18 | 2.97 ± 0.082
PTESYLQYIIHDTLNNE [BRR2] | 2.22 ± 0.058 | 2.43 ± 0.07 | 2.37 ± 0.097 | 2.26 ± 0.065
SSISVMGENEKPDVTYA [RPT3] | 2.92 ± 0.2 | 3.25 ± 0.1 | 3.12 ± 0.11 | 3.27 ± 0.083
IPQSQQVPQVRSMSGQP [SNF5] | 2.52 ± 0.05 | 2.55 ± 0.047 | 2.5 ± 0.047 | 2.7 ± 0.039

Sequence | protein stability index (doa10∆) | protein stability index (pdr5∆) | protein stability index (san1∆) | protein stability index (ubr1∆)
KRRIEEEQEKINSAPDF [ISW2] | 3.4 ± 0.2 | 3.58 ± 0.22 | 2.98 ± 0.15 | 3.57 ± 0.099
VVDANGCVNSLISGPRN [YMR129W/POM152] | 2.86 ± 0.15 | 2.69 ± 0.12 | 2.97 ± 0.13 | 2.66 ± 0.081
EIITSLSMRFQRETSGM [SRB8] | – | 2.28 ± 0.18 | – | 2.47 ± 0.17
SDSYKVSLQNFSSSVSL [RRP40] | 2.69 ± 0.055 | 1.8 ± 0.044 | 2.02 ± 0.079 | 1.91 ± 0.037
MKFQESLKKVDEIKAQR [SMC4] | – | 3.57 ± 0.26 | 3.34 ± 0.17 | 3.57 ± 0.082
IEQLFPVRPVRVRHEDV [RPC53] | 2.9 ± 0.076 | 2.97 ± 0.048 | 2.89 ± 0.055 | 3.03 ± 0.037
GIFIKILNDSLIYHLKD [IRR1] | 1.54 ± 0.045 | 1.31 ± 0.048 | 1.69 ± 0.068 | 1.75 ± 0.033
VLEKYEVIGYIAAGTYG [SSN3] | 1.34 ± 0.088 | 1.55 ± 0.14 | – | 1.28 ± 0.075
SKFHFSWNESEDTLSGY [PRP28] | 3.07 ± 0.12 | 3.19 ± 0.12 | 3.2 ± 0.075 | 3.47 ± 0.058
LNIKPLLDAGCKVVAEM [SKP1] | 2.44 ± 0.083 | 2.51 ± 0.081 | 1.85 ± 0.1 | 2.47 ± 0.054
LELRNSVMDDILEMMPE [PRP8] | 3.53 ± 0.12 | 3.26 ± 0.12 | 3.15 ± 0.09 | 3.37 ± 0.068
QNVTSETHSKKRKKEAN [ITC1] | 2.92 ± 0.075 | 3.02 ± 0.075 | 2.94 ± 0.041 | 3.08 ± 0.073
EFSEHTFVERLPNETIN [DIS3] | 3.34 ± 0.16 | 2.47 ± 0.18 | 3.36 ± 0.11 | 3.23 ± 0.12
RGKDGKLHVAAKLPGHK [YGL100W/SEH1] | 3.31 ± 0.14 | 3.13 ± 0.14 | – | 2.7 ± 0.16
KYDRKVPSPTGEYVKEP [RPO21] | 2.98 ± 0.1 | 3.22 ± 0.071 | 2.81 ± 0.089 | 3.09 ± 0.04
DSPFSLICQNNLNAFVD [SRP72] | 2.98 ± 0.069 | 3 ± 0.055 | 2.85 ± 0.05 | 2.92 ± 0.046
KKIMDETPSRLLLSPDQ [ITC1] | 3.04 ± 0.056 | 3.37 ± 0.065 | 3.21 ± 0.078 | 3.33 ± 0.041
TRSWRPPQAGDRSLADD [RPB8] | 3.1 ± 0.11 | 3.09 ± 0.16 | 3.32 ± 0.13 | 3.21 ± 0.11
ELNDLKWGRNQPVNINL [YMR129W/POM152] | 2.8 ± 0.1 | 2.72 ± 0.086 | 2.83 ± 0.11 | 2.56 ± 0.068
GIKVSLLGIFDDIFIPQ [RPC25] | 1.78 ± 0.077 | 1.73 ± 0.092 | 2 ± 0.18 | 1.77 ± 0.081
INMADRSLGLQQVVCIF [POP6] | 1.39 ± 0.093 | 1.3 ± 0.11 | 1.4 ± 0.15 | 1.06 ± 0.11
ELALKTLSKTTDSSALT [PRE9] | 2.62 ± 0.057 | 2.1 ± 0.06 | 2.54 ± 0.065 | 2.73 ± 0.043
TKDLLSKSPSEWQDIIH [CSE2] | 3.1 ± 0.082 | 2.99 ± 0.077 | 3.07 ± 0.075 | 3.17 ± 0.049
YLKKREAGEVKDDGAFV [RPL10] | 3.16 ± 0.11 | 2.8 ± 0.2 | 3.37 ± 0.044 | 3.27 ± 0.1
YDPIKRIDAFNALEHKY [SSN3] | 2.83 ± 0.058 | 2.85 ± 0.041 | 2.73 ± 0.05 | 2.77 ± 0.043
YIEEKHPTIYESLPQYV [POP4] | 2.33 ± 0.044 | 2.39 ± 0.048 | 1.91 ± 0.052 | 2.06 ± 0.045
ITFHPKIRARSITLQGD [SMC2] | 2.48 ± 0.049 | 2.56 ± 0.045 | 2.69 ± 0.051 | 2.48 ± 0.043
